What was measured:
[1] = Liposome permeabilization by WT and mutant BAK proteins (autoactivation, or direct activation by BID BH3); type: biochemical; conditions: absence of BID BH3
Method: Human BAK-∆TM-His6 (BAK)[26] spontaneously permeabilizes liposomes above a certain dose (>100 nM, Fig. 1a). In these dye-release assays[43]–[46], BAK is recruited via His-tag to liposomes containing 2.5 µM of the lipid 1,2-dioleoyl-sn-glycero-3-[(N-(5-amino-1-carboxypentyl)iminodiacetic acid)succinyl] (nickel salt), DGS-NTA(Ni).
To probe autoactivation with full-length BAK, we mutated hydrophobic residues at positions (0)−(6) of the BH3 to alanine or arginine, and D83, which forms the conserved salt bridge (s) with R127, to alanine (Fig. 2a). The BH3 residues participate in autoactivation from the ligand side [hydrophobic positions (0)–(5) and D83(s)] and also from the receptor groove side [hydrophobic positions (3)–(5)] (Fig. 2a). Thus, substitutions at positions (3)–(5) should affect receptor and ligand activities and are predicted to impact BAK activation more severely than mutations of positions (0)–(2), which affect only ligand activity. […] In contrast, almost all (2)–(5) and (s) missense mutants were considerably impaired in autoactivation (Fig. 2b and Supplementary Fig. 3a). […] Despite impairment in autoactivation, all missense mutants were directly activated by BID BH3 peptide, although they induced lower level of permeabilization compared to WT BAK (Fig. 2b and Supplementary Fig. 3a).
We performed liposome permeabilization assays as previously described[43]–[46]. […] (nickel salt) [DGS NTA(Ni), 2.5 μM final concentration in each assay] (Avanti Polar Lipids). We prepared 12.5 mM fluorophore; 8-aminonaphthalene-1, 3, 6-trisulfonic acid, disodium salt (ANTS) and 45 mM quencher; p-xylene-bis-pyridiniumbromide (DPX) in LUV buffer (10 mM HEPES pH 6.8, 200 mM KCl and 5 mM MgCl2). We mixed the lipid film in ANTS/DPX solution by vortexing and sonication (~15 min) followed by extrusion through polycarbonate membrane of 2 μm pore size (Avanti Polar lipids) to generate homogenous large unilamellar vesicles (LUVs). We separated LUVs from free ANTS/DPX by S500 size exclusion chromatography and stored them at 4 °C in the dark. We prepared peptide and protein dilutions in 96-well black flat bottom plates (Costar) kept on ice. ANTS release from permeabilized liposomes causes an increase in fluorescence, which we monitored at 37 °C for 90 min using a CLARIOSTAR microplate reader (BMG Labtech) set at excitation and emission wavelengths of 360 and 530 nm, respectively. We normalized the data relative to maximum and minimum fluorescence induced by 3% CHAPS and buffer controls, respectively. We quantified liposome permabilization by integrating area under curve (AUC) of normalized traces based on the Simpson’s equation, and analyzed that data in Excel and GraphPad Prism. AUC measurements reflect the kinetic and extent of liposome permeabilization and provide quantitative means for comparison between different experimental conditions (e.g., BAK mutants with gross or partial variation in activity). Variability in permeabilization of different liposomes is common and our analyses compare among conditions investigated with the same liposomes. Although the absolute permeabilization values may differ, the trends for the same conditions are always very similar between different liposomes.

[2] = system: BCL2allKO HCT116 cells expressing mC-BAK and BID; assay: Dox + TRAIL + CHX induced cell death by IncuCyte imaging of SYTOX Green uptake (direct activation); type: cell-based, human; conditions: TRAIL 200 ng/mL + CHX 0.5 µg/mL added at 6 h
Method: We achieved stable, constitutive expression of human BID in mC-BAK expressing BCL2allKO HCT116 by retroviral transduction based on pMX-human-BID-IRES-GFP. Amplification primers are included in Supplementary Table 4. We performed two rounds of FACS sorting gating on GFP-positive cells to enrich for populations of cells that express BID.
For coexpression of mC-BAK + BID, we treated cells with different doses of Dox for 24 h to induce expression of mC-BAK. At 6 h, we treated cells with TRAIL (200 ng/mL) + cycloheximide (CHX, 0.5 µg/mL) to promote BID activation under conditions of protein synthesis inhibition by CHX, and continued to record Incucyte imaging of SYTOX Green uptake up to 48 h. We blocked caspase activity with qVD (40 µM).

[3] = system: bak−/− bax−/− HCT116 cells; assay: Apoptosis initiated by actinomycin D and TRAIL + CHX in cells constitutively expressing BAK; type: cell-based, human; conditions: constitutive pMX-BAK-IRES-GFP
Excerpt: We enriched for GFP positive cell populations by up to four rounds of sorting. Cells were used in apoptosis assays. […]
and doxycycline (Dox)-inducible mC-BAK. d, Representative i mmunoblot for BID and sypro red staining of BCL2allKO HCT116 cells expressing V74A and D83A mC-BAK and BID from n=2 independent experiments. e, Representative immunoblot of bak-/- bax- […]
from n=2 independent experiments . GFP positive cells were sorted three and four times to achieve similar expression levels. […]
human TRAIL and cycloheximide (CHX).
Data are presented as mean + SD for one representative of n=2 experiments each of n=3 technical replicates. g, Experimental […]
BAK (mC-BAK) monitored for 48 hr by IncuCyte imaging uptake of cell-impermeable dye SYTOX Green. AUC for kinetic traces is included. At 48 hr, we quantified percentage of SYTOX Green +ve cells (%) by fluorescence activated cell sorting (FACS). Data are presented as mean + SD from one of n=3 experiments each of n=3

[4] = system: BCL2allKO HCT116 cells reconstituted with mC-BAK; assay: Endpoint FACS analysis of SYTOX Green positive cells; type: cell-based, human; conditions: average, N = 3
Method: We seeded cells in 24-well (100,000 cells/well), 96-well (15,000 cells/well), or 384-well (10,000 cells/well) plates coated with 10 µg/mL fibronectin. After ≥24 h of attachment and recovery, we induced cell death with Dox (up to 1000 ng/mL) and monitored SYTOX Green (25 nM) uptake by Incucyte imaging. This dye marks cells with compromised plasma membrane integrity. mC-BAK expressed before 24 h, which coincided with detectable cell death. We monitored Incucyte imaging for up to 48 h, followed by endpoint FACS analysis to measure the extent of cell death based on SYTOX Green positive cells on FACSCalibur systems (BD Biosciences). As expected, cells with low mCherry fluorescence were refractory to cell death.

B1: V74A (1): BAK missense mutant, WT-like; in cells as mCherry fusion (protein)
chain: MASGQGPGPPRQECGEPALPSASEEQVAQDTEEVFRSYVFYRHQQEQEAEGVAAPADPEMVTLPLQPSSTMGQAGRQLAIIGDDINRRYDSEFQTMLQHLQPTAENAYEYFTKIATSLFESGINWGRVVALLGFGYRLALHVYQHGLTGFLGQVTRFVVDFMLHHCIARWIAQRGGWVAALNLGNG
modifications: left off: His6, C-terminal, kept
notes: BAK missense mutant, WT-like; in cells as mCherry fusion
- autoactivation in liposome permeabilization assays [1]: behave similar to WT BAK
- cell death with Dox + TRAIL + CHX compared to Dox alone [2]: boosted the levels of cell death
- response to apoptotic inducers actinomycin D and TRAIL + CHX [3]: respond similarly
- flow cytometry SYTOX Green counts/confluence (48 hr) ([4]; Dox 100 ng/mL): 40.5
- flow cytometry SYTOX Green counts/confluence (48 hr) ([4]; Dox 1000 ng/mL): 46.1667

— article PMC8752837, “Structural basis of BAK activation in mitochondrial apoptosis initiation” (Nature Communications, 2022)
